From the RNAGym collection of RNA variant scans (doi:10.7554/elife.80360) come the findings set out here.

B1: Hairpin Ribozyme (parent)
chain: GUCCUCUUUCACGUGCGCGUGAAAGAGAGAAGUGAACCAGAGAAACACACGUUGUGGUAUAUUACCUGGUA

This data set covers variants of B1. Kind of data set: self-cleavage, relative activity (ratio to wild type); higher = more cleavage; co-transcriptional.
Take GUCCUCUUUCACGUGCGCGUGAAAGAGAGAAGUUAACCAGAGAAACACACGUUGUGGUAUAUUACCUGGUU [G34U A71U]: the self-cleavage was 1.36.

With GUCCUCUUUCACGUGCGCGUGAAAGAGAUACGUGAACCAGAGAAACACACGUUGUGGUAUAUUACCUGGUA [G29U A31C], the self-cleavage came to 0.2.

Regarding GUCCUCUUUCACGUGCACGUGAAAGAGAGAAGUGAACCAGAGAAACACUCGUUGUGGUAUAUUACCUGGUA [G17A A49U], the self-cleavage worked out at 0.141.

As to GUCCUCUUUCACGUGCGCGUGAGAGAGAGAAGUGAACCAGAGAAACACACGUUGUGUUAUAUUACCUGGUA [A23G G57U], the self-cleavage amounted to 0.142.

For GUCCUCUUUCACGUGCGCGUGAAAGAGCGAAGUGAACCAGAGAAUCACACGUUGUGGUAUAUUACCUGGUA [A28C A45U], the self-cleavage is 0.134.

Turning to GUCCUCUUUCACGUGCGCGUGAAAGAGAGAAGUGAACCAGAGAAAUAGACGUUGUGGUAUAUUACCUGGUA [C46U C48G], the self-cleavage is 0.141.

GUCCUCUUUCACGUGCACGUGAAAGAGAGAAGUGAACCAGAGAACCACACGUUGUGGUAUAUUACCUGGUA [G17A A45C]: the self-cleavage came to 0.0797.

For GUCCUCUUUCACGUGCGUGUGAAAGAGAGAAGUGAACCAGAGAAACACCCGUUGUGGUAUAUUACCUGGUA [C18U A49C], the self-cleavage came out at 0.193.

In the case of GUCCUCUUUCACGUGCGCGUGACAGAGAGAAGUGAACCAGAGAAACACACGUUGUGGGAUAUUACCUGGUA [A23C U58G], the self-cleavage is 0.674.

With GUCCUCUUUCACGUGCGCGUGAAAGAGAGAAUUGAACCAGAGAAACACACGUUGUGGUAUAUUACCCGGUA [G32U U67C], the self-cleavage is 0.0935.

In the case of GUCCUCUUUCACGUGCGGGUGAAAGAGAGAAGUGAACCAGAGAAACACACGUUGUGGUAUAUUACCUGCUA [C18G G69C], the self-cleavage came to 0.205.

GUCCUCUUUCACGUGCGCGUGAAAGAGAGAAGUGAACCAGAAAAACACACGUGGUGGUAUAUUACCUGGUA [G42A U53G]: the self-cleavage amounted to 0.237.

As for GUCCUCUUUCGCUUGCGCGUGAAAGAGAGAAGUGAACCAGAGAAACACACGUUGUGGUAUAUUACCUGGUA [A11G G13U], the self-cleavage was determined as 0.662.

As to CUCCACUUUCACGUGCGCGUGAAAGAGAGAAGUGAACCAGAGAAACACACGUUGUGGUAUAUUACCUGGUA [G1C U5A], the self-cleavage was 0.133.

Take GUCCUCUUUCACGUGCGCGUGAAAGUGAGAAGUGAACCAGAGAAACACACGUUGUGGUAUAUUACCGGGUA [A26U U67G]: the self-cleavage turned out to be 0.2.

Consider UUCCUCUUUCACGUGCGCGUGAAAGAGAGAAGUGAACCAGAGAAACACACGUUGUGGUAUAUCACCUGGUA [G1U U63C], for which the self-cleavage stood at 0.181.

With GUCCUCUUUCACGUGCGCGUGUAAGAGAGAAGUGAACCAGAGAAACACACCUUGUGGUAUAUUACCUGGUA [A22U G51C], the self-cleavage stood at 0.607.

On to GUCCUCUUGCACGUGCGCGUGAAAGAGAGAAGUGAACCAGAGAAACACACGUUGUGGUAUUUUACCUGGUA [U9G A61U], for which the self-cleavage was 0.211.

Turning to GUCCUCUUUCACGUGCGCGUGAAAGAGAGAAGUGAACCAGAGAAACACACGUUGCAGUAUAUUACCUGGUA [U55C G56A], the self-cleavage was 0.0854.

Consider GUCCUCUUUCACGUGCGCGUGAAAGAGACAAGUGAACCAGAGAAACACACGUUGUGGUAUAUUACCUGCUA [G29C G69C], for which the self-cleavage came to 0.0776.

For GUCCUCUUUCACGUGCGCGUCAAAGAGAGAAGUGAACCAGAGAAACACACGUUGUGGUAUAUUAACUGGUA [G21C C65A], the self-cleavage was determined as 0.777.

For the variant GUCCUCUUCCACGUGCGCGUGAAAGAGAGAAGUGAUCCAGAGAAACACACGUUGUGGUAUAUUACCUGGUA [U9C A36U], the self-cleavage was determined as 0.444.

Regarding GCCCUCUUUCACGUGCGCGUGAAAGAGAGAAGUGAACCAGAGAAACACACGUUGUGGUAUAUGACCUGGUA [U2C U63G], the self-cleavage stood at 0.

For GUCCUCUUUCACGUGCGCGUGAAAGAGAGAAGUGAACCAGAGAAUCACACCUUGUGGUAUAUUACCUGGUA [A45U G51C], the self-cleavage was 0.0528.

For the variant GUCCUCUUUCACGUGCGCGUGAAAGAGAGAAGUGACCCAGAGAAACACACGAUGUGGUAUAUUACCUGGUA [A36C U52A], the self-cleavage was 0.768.

For the variant GUCCUCUUUCACGUGCGCGUGAAAGAGAGAACUGAGCCAGAGAAACACACGUUGUGGUAUAUUACCUGGUA [G32C A36G], the self-cleavage was 0.0754.

For GUCCUCUUUCACGUGCGCGUGAAAGAGAGAAGUUAACCAGAGAAACACACGUUGUGGUAUAUUCCCUGGUA [G34U A64C], the self-cleavage came to 0.376.

With GUCCUUUUUCACGUGCGCGUGAAAGAUAGAAGUGAACCAGAGAAACACACGUUGUGGUAUAUUACCUGGUA [C6U G27U], the self-cleavage is 0.147.

With GUCCUCUUUCACGUGCGCGUGAAAGAGAGAAUUGAACCAGAGAAACACACGUUGUGGUAUAUUACGUGGUA [G32U C66G], the self-cleavage is 0.19.

As for GUCCUCUUUCCCGUGCGCGUGAAAGAGAGAAUUGAACCAGAGAAACACACGUUGUGGUAUAUUACCUGGUA [A11C G32U], the self-cleavage came to 0.063.

Turning to GUCCUCUCUCACGUGCGCGUGAAAGAGAGAAGUGCACCAGAGAAACACACGUUGUGGUAUAUUACCUGGUA [U8C A35C], the self-cleavage was found to be 0.876.

Turning to GCCCUCUUUCACGUGCGCGUGAAAGAGAGAAGUGAACCAGAGAAACACACGUUCUGGUAUAUUACCUGGUA [U2C G54C], the self-cleavage was 0.127.

Regarding GUCCUGUUUCACGUGCGCGUGAAAGAGAGAAGUGAACCAGAGAAACAAACGUUGUGGUAUAUUACCUGGUA [C6G C48A], the self-cleavage was 0.171.

Turning to GUCCUCUUUCACGUGCGCGUGAAAGAGAGAAGUGAAUCAGAGAAACACACGUUGUGGGAUAUUACCUGGUA [C37U U58G], the self-cleavage is 0.553.

Take GUCCUCUUUCACGUGCGCGUGAAAGAGAGAAGUGAACCAGAGAACCACACGUUGUGGUAUAUUACCUCGUA [A45C G68C]: the self-cleavage came to 0.119.

For the variant GUCCUCAUUCACGUGCGCGUGAAAGAGAGAAGUGAACCAGAGAAGCACACGUUGUGGUAUAUUACCUGGUA [U7A A45G], the self-cleavage came out at 0.204.

Take GUCCUCUUUCACGUGCGCGUGAAAGAGAGUAGUGAACCAGAGAAACACACGUUGUGGUAUAUUACCUGGUU [A30U A71U]: the self-cleavage is 0.101.

With AUCCUCUUUCACGUGCGCGUGAAAGAGAGAAGUGAACCAGAGAAACACACGUUGUGGUAUAGUACCUGGUA [G1A U62G], the self-cleavage was 0.0492.
